Measured values taken from US20220056139A1 (UNIVERSITY OF SOUTHERN CALIFORNIA, published 2022).

B1: huLym-1-B-BB3z CAR (receptor)
chain: EVQLVESGGGLVQPGRSLRLTCTASGFSLTSYGVHWVRQPPGKGLEWLAVIWSDGSTTYNSALKSRLTISKDNSKSQVYLQMNSLRAEDTAVYYCARHYGSTLAFASWGQGTLVTVSSGGGGSGGGGSGGGGSDIQMTQSPSSLSASVGDRVTITCRASVNIYSYLAWYQQKPGKAPNLLIYNAKILAEGVPSRFSGSGSGTDFTLTISSLQPEDFASYYCQHHYGTFTFGQGTKVEIKAVPPQQWALSTTTPAPRPPTPAPTIASQPLSLRPEACRPAAGGAVHTRGLDFACDIYIWAPLAGTCGVLLLSLVITLYCKRGRKKLLYIFKQPFMRPVQTTQEEDGCSCRFPEEEEGGCELRVKFSRSADAPAYKQGQNQLYNELNLGRREEYDVLDKRRGRDPEMGGKPRRKNPQEGLYNELQKDKMAEAYSEIGMKGERRRGKGHDGLYQGLSTATKDTYDALHMQALPP
B2: huLym-1-B-DAP CAR (Experiment 3, with 261 tag) (receptor)
chain: EVQLVESGGGLVQPGRSLRLTCTASGFSLTSYGVHWVRQPPGKGLEWLAVIWSDGSTTYNSALKSRLTISKDNSKSQVYLQMNSLRAEDTAVYYCARHYGSTLAFASWGQGTLVTVSSGGGGSGGGGSGGGGSDIQMTQSPSSLSASVGDRVTITCRASVNIYSYLAWYQQKPGKAPNLLIYNAKILAEGVPSRFSGSGSGTDFTLTISSLQPEDFASYYCQHHYGTFTFGQGTKVEIKAVPPQQWALSTTTPAPRPPTPAPTIASQPLSLRPEACRPAAGGAVHTRGLDFACDIYIWAPLAGTCGVLLLSLVITLYCLCARPRRSPAQDGKVYINMPGRGYFLGRLVPRGRGAAEAATRKQRITETESPYQELQGQRSDVYSDLNTQRPYYK

Target: HLA-DR (human)
Test: cell-based or functional assay

Row | Binder | fold expansion of CAR T cells from days 7-14 [fold] | killing of Raji cells at 2:1 effector to target ratio, overnight co-culture [%]
1 | B1 | < 4 | 
2 | B2 |  | ~80
